Data reported in paper PMC6409194 (European journal of pharmacology, 2019).

Target: calmodulin (UniProt P0DP23 1-149)
Assay: other fluorescence titration

Kd: 3.8 µM
B1: BSα1A-AR333-361mut, FRET biosensor with K353Q/L356A SMD4JM (a.a. 333-361) of the human α1A adrenoceptor between ECFP and EYFPc (domain or fragment)
chain: FKKAFQNVLRIQCLCRKQSSQHAAGYTLH
